The record followed here is patent publication US20210252150A1 (VANDERBILT UNIVERSITY, published 2021).

Like-named read-outs stand apart in the source and are kept apart here.

Test [1] concerns the target T1, HA of A/California/04/2009 (H1N1) (influenza A virus (H1N1), UniProt P26140 18-529). Briefly: ELISA, recombinant HA. A general note: An ELISA detects its analyte on a solid surface through an enzyme-linked reagent.
The target of test [2] is HA of A/duck/Czechoslovakia/1956 (H4). Briefly: ELISA, recombinant HA.
Test [3] deals with T1, HA of A/California/04/2009 (H1N1). Briefly: ELISA, recombinant HA. This is another data set of the same source.
In test [4] the target is HA of A/duck/Czechoslovakia/1956 (H4). Briefly: ELISA, recombinant HA. The source holds these as a separate data set.
For test [5], the target named is T1, HA of A/California/04/2009 (H1N1). Briefly: BLI, Fab on immobilized biotinylated HA.
For test [6] the target is unchanged. Briefly: BLI, Fab on immobilized biotinylated HA. The source holds these as a separate data set.
The target in test [7] is HA of A/Singapore/1/1957 (H2) (influenza A virus (H2), UniProt Q67333 16-525).
Test [8] has as its target HA of A/Hong Kong/1/1968 (H3N2) (influenza A virus (H3N2), UniProt Q91MA7 17-530).
In test [9] the target is T1, HA of A/California/04/2009 (H1N1). Briefly: ELISA (highest dilution tested 1/50,000).

B1: UCA (antibody, V domains shown)
VH: QVQLQESGPGLVKPSETLSLTCTVSGGSVSSGSYYWSWIRQPPGKGLEWIGYIYYSGSTNYNPSLKSRVTISVDTSKNQFSLKLSSVTAADTAVYYCARGTEDLGYCSGGSCPNHWGQGTLVTV
VL: not shown
For orientation: EC50 means the midpoint of the concentration-response curve. With B1, the half-maximal effective concentration (EC50) in test [1] is 0.14 µg/mL; in [2] it was 0.025 µg/mL; in test [3] it was 0.051 µg/mL; in test [4] it was 0.013 µg/mL.

B2: FluA-20 UCA Fab (unmutated common ancestor of FluA-20) (Fab, V domains shown)
VH: QVQLQESGPGLVKPSETLSLTCTVSGGSVSSGSYYWSWIRQPPGKGLEWIGYIYYSGSTNYNPSLKSRVTISVDTSKNQFSLKLSSVTAADTAVYYCARGTEDLGYCSGGSCPNHWGQGTLVTV
VL: not shown
One may read the Kd as the equilibrium constant for the complex coming apart. High values mean lower affinity, low ones higher affinity. As for B2, the dissociation constant Kd in [5] and in [6] was 1430 nM each time.

B3: FluA-20 (hybridoma-produced IgG) (antibody, V domains shown)
VH: QVQLQESGPGLVKPSETLSLTCSVSGVSVTSDIYYWTWIRQPPGKGLEWIGYIFYNGDTNYNPSLKSRVTMSIDTSKNEFSLRLTSVTAADTAVYFCARGTEDLGYCSSGSCPNHWGQGTLVTVSS
VL: DIQMTQSPSSLSASIGDRVTITCRPSQNIRSFLNWFQHKPGKAPKLLIYAASNLQSGVPSRFSGSGSGTEFTLTIRSLQPEDFATYYCQQSYNTPPTFGQGTKVEIK
As to B3, the half-maximal effective concentration (EC50) is 0.013 µg/mL in test [2] and 0.007 µg/mL in [4].

B4: rFluA-20 heavy chain mutant Y100aA (antibody, V domains shown)
VH: QVQLQESGPGLVKPSETLSLTCSVSGVSVTSDIYYWTWIRQPPGKGLEWIGYIFYNGDTNYNPSLKSRVTMSIDTSKNEFSLRLTSVTAADTAVYFCARGTEDLGACSSGSCPNHWGQGTLVTVSS
VL: DIQMTQSPSSLSASIGDRVTITCRPSQNIRSFLNWFQHKPGKAPKLLIYAASNLQSGVPSRFSGSGSGTEFTLTIRSLQPEDFATYYCQQSYNTPPTFGQGTKVEIK
Consider B4, for which the “EC50 fold over wild-type rFluA-20” value in [7] was over 100 fold. For the same molecule, the EC50 in [8] was 0.07 µg/mL.

B5: rFluA-20 heavy chain mutant E97A (antibody, V domains shown)
VH: QVQLQESGPGLVKPSETLSLTCSVSGVSVTSDIYYWTWIRQPPGKGLEWIGYIFYNGDTNYNPSLKSRVTMSIDTSKNEFSLRLTSVTAADTAVYFCARGTADLGYCSSGSCPNHWGQGTLVTVSS
VL: DIQMTQSPSSLSASIGDRVTITCRPSQNIRSFLNWFQHKPGKAPKLLIYAASNLQSGVPSRFSGSGSGTEFTLTIRSLQPEDFATYYCQQSYNTPPTFGQGTKVEIK
Regarding B5, the concentration for a half-maximal effect (EC50) came to 0.13 µg/mL in test [7] and 0.07 µg/mL in [8].

B6: rFluA-20 light chain mutant N53A (antibody, V domains shown)
VH: QVQLQESGPGLVKPSETLSLTCSVSGVSVTSDIYYWTWIRQPPGKGLEWIGYIFYNGDTNYNPSLKSRVTMSIDTSKNEFSLRLTSVTAADTAVYFCARGTEDLGYCSSGSCPNHWGQGTLVTVSS
VL: DIQMTQSPSSLSASIGDRVTITCRPSQNIRSFLNWFQHKPGKAPKLLIYAASALQSGVPSRFSGSGSGTEFTLTIRSLQPEDFATYYCQQSYNTPPTFGQGTKVEIK
B6: the half-maximal effective concentration (EC50) in test [7] amounted to 0.16 µg/mL; in test [8], 0.06 µg/mL.

B7: rFluA-20 heavy chain mutant Y34A (antibody, V domains shown)
VH: QVQLQESGPGLVKPSETLSLTCSVSGVSVTSDIAYWTWIRQPPGKGLEWIGYIFYNGDTNYNPSLKSRVTMSIDTSKNEFSLRLTSVTAADTAVYFCARGTEDLGYCSSGSCPNHWGQGTLVTVSS
VL: DIQMTQSPSSLSASIGDRVTITCRPSQNIRSFLNWFQHKPGKAPKLLIYAASNLQSGVPSRFSGSGSGTEFTLTIRSLQPEDFATYYCQQSYNTPPTFGQGTKVEIK
As for B7, the EC50 is 0.11 µg/mL in test [7] and 0.07 µg/mL in test [8].

B8: rFluA-20 heavy chain mutant T96A (antibody, V domains shown)
VH: QVQLQESGPGLVKPSETLSLTCSVSGVSVTSDIYYWTWIRQPPGKGLEWIGYIFYNGDTNYNPSLKSRVTMSIDTSKNEFSLRLTSVTAADTAVYFCARGAEDLGYCSSGSCPNHWGQGTLVTVSS
VL: DIQMTQSPSSLSASIGDRVTITCRPSQNIRSFLNWFQHKPGKAPKLLIYAASNLQSGVPSRFSGSGSGTEFTLTIRSLQPEDFATYYCQQSYNTPPTFGQGTKVEIK
On to B8, for which the figures for the concentration giving a half-maximal response (EC50) in [7] and in [8] were 0.07 µg/mL and 0.1 µg/mL, respectively.

B9: rFluA-20 (recombinant FluA-20 IgG) (antibody, V domains shown)
VH: QVQLQESGPGLVKPSETLSLTCSVSGVSVTSDIYYWTWIRQPPGKGLEWIGYIFYNGDTNYNPSLKSRVTMSIDTSKNEFSLRLTSVTAADTAVYFCARGTEDLGYCSSGSCPNHWGQGTLVTVSS
VL: DIQMTQSPSSLSASIGDRVTITCRPSQNIRSFLNWFQHKPGKAPKLLIYAASNLQSGVPSRFSGSGSGTEFTLTIRSLQPEDFATYYCQQSYNTPPTFGQGTKVEIK
B9: the values for the EC50 in test [2] and in test [4] were 0.018 µg/mL and 0.007 µg/mL, respectively.

B10: H5.31 (antibody, V domains shown)
VH: EVQLVQSGGGLVQPGGSLRLSCEASRFTSSSYWITWVRQAPGKGLEWVANIKQDGSEKYFVDSVKGRFTISRDNASNSLYLQMSSLRAEDTAVYYCARGFLERLLLGRQGAYYYGMDVWGQGTTVTVSS
VL: DIQMTQSPSSLSASVGDRVTMTCRASQSISSSLNWYQQKPGKAPKLLIYAASNLQSGVPSRFSGSGSGTDFTLTISSLQPEDFATYYCQQSYTMPPELTFGGGTKVQIK
In test [9], B10 yielded an EC50 of 0.045 µg/mL.

B11: H5.28 (antibody, V domains shown)
VH: EVQLVESGGGLVQPGGSLRLSCAASGFTFSTYWMTWVRQAPGKGLEWVANINQDGGEKYFVDSVKGRFTISRDNAKNSLFLQMNTLRAEDTAVYYCARGFLERLLLGRQGAYYYGMDVWGQGTTVTVSS
VL: DIQMTQSPSSLSASVGDRVSMTCRASQIISSSLNWYQQKPGKAPKLLIYAASNLQSGVPSRFSGSGSGTDFTLTISSLQPEDFATYYCQQSYSTPPELTFGGGTKVEIK
With B11, a half-maximal effect in [9] (EC50) was put at 0.074 µg/mL.
